Key:
[1] = biological target: Rpb2, second largest subunit of RNA polymerase II (S. cerevisiae, UniProt P08518 1-1224); assay: cross-linking
[2] = biological target: Rpb1, subunit of RNA polymerase II (S. cerevisiae, UniProt P04050 1-1733); assay: cross-linking
Sequence of Rpb1, subunit of RNA polymerase II (P04050 whole entry): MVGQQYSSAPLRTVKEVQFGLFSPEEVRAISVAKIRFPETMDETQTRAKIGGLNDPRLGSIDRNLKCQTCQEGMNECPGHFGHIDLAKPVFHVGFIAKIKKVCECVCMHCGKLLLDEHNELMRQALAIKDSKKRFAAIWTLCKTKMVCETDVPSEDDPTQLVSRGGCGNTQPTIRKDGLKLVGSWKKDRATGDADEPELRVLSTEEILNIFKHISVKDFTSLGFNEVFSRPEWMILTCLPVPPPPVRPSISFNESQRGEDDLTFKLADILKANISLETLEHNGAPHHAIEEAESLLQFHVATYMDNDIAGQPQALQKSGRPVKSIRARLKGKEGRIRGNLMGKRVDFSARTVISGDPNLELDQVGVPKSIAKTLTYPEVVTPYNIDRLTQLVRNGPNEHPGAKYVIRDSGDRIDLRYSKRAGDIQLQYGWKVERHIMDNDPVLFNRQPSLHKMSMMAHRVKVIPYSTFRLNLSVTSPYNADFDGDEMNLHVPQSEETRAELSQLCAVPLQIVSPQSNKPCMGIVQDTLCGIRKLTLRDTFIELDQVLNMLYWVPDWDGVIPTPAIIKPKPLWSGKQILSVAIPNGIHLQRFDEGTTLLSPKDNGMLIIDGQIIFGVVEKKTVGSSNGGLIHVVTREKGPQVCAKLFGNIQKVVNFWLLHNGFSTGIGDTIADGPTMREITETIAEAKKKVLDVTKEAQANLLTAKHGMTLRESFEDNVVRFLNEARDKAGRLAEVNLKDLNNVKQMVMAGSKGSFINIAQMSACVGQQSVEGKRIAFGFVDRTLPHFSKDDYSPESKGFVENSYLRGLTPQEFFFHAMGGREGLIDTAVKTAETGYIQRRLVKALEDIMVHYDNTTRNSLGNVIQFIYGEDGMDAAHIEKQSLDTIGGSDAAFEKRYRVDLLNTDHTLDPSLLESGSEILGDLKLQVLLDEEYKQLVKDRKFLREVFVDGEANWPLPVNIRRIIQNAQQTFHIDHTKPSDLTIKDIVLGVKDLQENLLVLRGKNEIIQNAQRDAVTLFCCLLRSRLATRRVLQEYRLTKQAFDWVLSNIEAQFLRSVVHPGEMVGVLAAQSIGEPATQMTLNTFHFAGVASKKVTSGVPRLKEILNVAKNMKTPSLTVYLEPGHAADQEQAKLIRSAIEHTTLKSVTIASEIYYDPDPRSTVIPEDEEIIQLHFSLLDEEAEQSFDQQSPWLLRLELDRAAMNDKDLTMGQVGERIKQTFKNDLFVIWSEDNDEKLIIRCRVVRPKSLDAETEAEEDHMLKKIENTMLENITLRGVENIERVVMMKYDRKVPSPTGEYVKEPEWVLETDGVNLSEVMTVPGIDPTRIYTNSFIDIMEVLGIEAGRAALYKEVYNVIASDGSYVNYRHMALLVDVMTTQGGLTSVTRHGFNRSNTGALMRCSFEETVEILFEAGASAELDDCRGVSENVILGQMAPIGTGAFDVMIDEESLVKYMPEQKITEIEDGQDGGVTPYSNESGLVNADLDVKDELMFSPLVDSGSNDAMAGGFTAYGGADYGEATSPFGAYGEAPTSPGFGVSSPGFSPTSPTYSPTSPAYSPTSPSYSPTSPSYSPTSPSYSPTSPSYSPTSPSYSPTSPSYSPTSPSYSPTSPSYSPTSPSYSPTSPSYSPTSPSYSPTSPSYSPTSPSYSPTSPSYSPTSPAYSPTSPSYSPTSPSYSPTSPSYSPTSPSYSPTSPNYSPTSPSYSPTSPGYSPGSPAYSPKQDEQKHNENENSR

Sequence of Rpb2, second largest subunit of RNA polymerase II (P08518 whole entry): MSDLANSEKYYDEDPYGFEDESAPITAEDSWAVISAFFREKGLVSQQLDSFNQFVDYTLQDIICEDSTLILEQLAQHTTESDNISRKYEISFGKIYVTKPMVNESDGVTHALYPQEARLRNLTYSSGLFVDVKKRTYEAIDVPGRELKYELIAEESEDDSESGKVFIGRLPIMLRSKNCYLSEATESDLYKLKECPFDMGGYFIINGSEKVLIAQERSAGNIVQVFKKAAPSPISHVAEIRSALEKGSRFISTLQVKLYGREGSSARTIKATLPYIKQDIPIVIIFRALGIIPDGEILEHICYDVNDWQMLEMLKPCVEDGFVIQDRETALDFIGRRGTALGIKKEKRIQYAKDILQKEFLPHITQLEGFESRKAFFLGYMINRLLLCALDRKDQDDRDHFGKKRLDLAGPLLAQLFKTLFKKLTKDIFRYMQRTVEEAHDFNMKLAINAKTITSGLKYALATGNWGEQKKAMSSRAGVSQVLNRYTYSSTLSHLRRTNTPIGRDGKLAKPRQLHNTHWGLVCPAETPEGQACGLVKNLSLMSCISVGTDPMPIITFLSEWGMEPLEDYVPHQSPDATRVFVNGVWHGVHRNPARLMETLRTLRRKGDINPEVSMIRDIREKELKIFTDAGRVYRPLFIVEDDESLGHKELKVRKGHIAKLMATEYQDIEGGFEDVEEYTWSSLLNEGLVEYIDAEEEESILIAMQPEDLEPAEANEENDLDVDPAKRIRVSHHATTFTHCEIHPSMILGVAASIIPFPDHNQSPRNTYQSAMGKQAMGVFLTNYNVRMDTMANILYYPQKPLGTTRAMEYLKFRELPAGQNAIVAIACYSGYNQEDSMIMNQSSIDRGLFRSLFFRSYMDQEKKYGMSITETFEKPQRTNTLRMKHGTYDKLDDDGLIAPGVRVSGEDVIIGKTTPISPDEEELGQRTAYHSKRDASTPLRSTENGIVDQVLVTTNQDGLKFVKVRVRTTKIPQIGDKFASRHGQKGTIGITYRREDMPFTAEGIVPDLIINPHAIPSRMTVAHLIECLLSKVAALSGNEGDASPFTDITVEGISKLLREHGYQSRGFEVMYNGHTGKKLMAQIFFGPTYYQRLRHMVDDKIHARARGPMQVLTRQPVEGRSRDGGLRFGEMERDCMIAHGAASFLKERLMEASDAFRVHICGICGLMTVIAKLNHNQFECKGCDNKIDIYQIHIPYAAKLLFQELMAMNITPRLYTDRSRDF

Row | binding result [1] | binding result [2] | Binder
1 | binds | – | Tfg2, subunit of yeast TFIIF, with a C-terminal TAP tag (natural protein, S. cerevisiae, UniProt P41896 1-400, looked up) MSSGSAGAPALSNNSTNSVAKEKSGNISGDEYLSQEEEVFDGNDIENNETKVYEESLDLDLERSNRQVWLVRLPMFLAEKWRDRNNLHGQELGKIRINKDGSKITLLLNENDNDSIPHEYDLELTKKVVENEYVFTEQNLKKYQQRKKELEADPEKQRQAYLKKQEREEELKKKQQQQKRRNNRKKFNHRVMTDRDGRDRYIPYVKTIPKKTAIVGTVCHECQVMPSMNDPNYHKIVEQRRNIVKLNNKERITTLDETVGVTMSHTGMSMRSDNSNFLKVGREKAKSNIKSIRMPKKEILDYLFKLFDEYDYWSLKGLKERTRQPEAHLKECLDKVATLVKKGPYAFKYTLRPEYKKLKEEERKATLGELADEQTGSAGDNAQGDAEADLEDEIEMEDVV
2 | binds | binds | Tfg1, subunit of yeast TFIIF (natural protein, S. cerevisiae, UniProt P41895 1-735, looked up) MSRRNPPGSRNGGGPTNASPFIKRDRMRRNFLRMRMGQNGSNSSSPGVPNGDNSRGSLVKKDDPEYAEEREKMLLQIGVEADAGRSNVKVKDEDPNEYNEFPLRAIPKEDLENMRTHLLKFQSKKKINPVTDFHLPVRLHRKDTRNLQFQLTRAEIVQRQKEISEYKKKAEQERSTPNSGGMNKSGTVSLNNTVKDGSQTPTVDSVTKDNTANGVNSSIPTVTGSSVPPASPTTVSAVESNGLSNGSTSAANGLDGNASTANLANGRPLVTKLEDAGPAEDPTKVGMVKYDGKEVTNEPEFEEGTMDPLADVAPDGGGRAKRGNLRRKTRQLKVLDENAKKLRFEEFYPWVMEDFDGYNTWVGSYEAGNSDSYVLLSVEDDGSFTMIPADKVYKFTARNKYATLTIDEAEKRMDKKSGEVPRWLMKHLDNIGTTTTRYDRTRRKLKAVADQQAMDEDDRDDNSEVELDYDEEFADDEEAPIIDGNEQENKESEQRIKKEMLQANAMGLRDEEAPSENEEDELFGEKKIDEDGERIKKALQKTELAALYSSDENEINPYLSESDIENKENESPVKKEEDSDTLSKSKRSSPKKQQKKATNAHVHKEPTLRVKSIKNCVIILKGDKKILKSFPEGEWNPQTTKAVDSSNNASNTVPSPIKQEEGLNSTVAEREETPAPTITEKDIIEAIGDGKVNIKEFGKFIRRKYPGAENKKLMFAIVKKLCRKVGNDHMELKKE

— PMC2810376 (The EMBO Journal, 2010)
